From patent publication US20260286413A1, “HYALURONAN SYNTHESIS, SECRETION AND LENGTH CONTROL” (UNIVERSITY OF VIRGINIA, priority 2023, published 2026)

How the values were obtained:
[1] = system: Hyaluronic acid synthesis; settings: cited from earlier work
[2] = target: T1, X1HAS1 (Xenopus laevis, UniProt P13563); experiment: Substrate turnover rate quantification (UDP release, enzyme-coupled assay); type: biochemical; settings: for Km: one substrate titrated at saturating concentration of the other, real-time quantification of released UDP, read-out: Michaelis-Menten constant
T1 construct: dodeca-histidine (His12) (N); made in house; host or cells: Spodoptera frugiperda Sf9 cells (baculovirus)
T1 sequence (P13563 1-588): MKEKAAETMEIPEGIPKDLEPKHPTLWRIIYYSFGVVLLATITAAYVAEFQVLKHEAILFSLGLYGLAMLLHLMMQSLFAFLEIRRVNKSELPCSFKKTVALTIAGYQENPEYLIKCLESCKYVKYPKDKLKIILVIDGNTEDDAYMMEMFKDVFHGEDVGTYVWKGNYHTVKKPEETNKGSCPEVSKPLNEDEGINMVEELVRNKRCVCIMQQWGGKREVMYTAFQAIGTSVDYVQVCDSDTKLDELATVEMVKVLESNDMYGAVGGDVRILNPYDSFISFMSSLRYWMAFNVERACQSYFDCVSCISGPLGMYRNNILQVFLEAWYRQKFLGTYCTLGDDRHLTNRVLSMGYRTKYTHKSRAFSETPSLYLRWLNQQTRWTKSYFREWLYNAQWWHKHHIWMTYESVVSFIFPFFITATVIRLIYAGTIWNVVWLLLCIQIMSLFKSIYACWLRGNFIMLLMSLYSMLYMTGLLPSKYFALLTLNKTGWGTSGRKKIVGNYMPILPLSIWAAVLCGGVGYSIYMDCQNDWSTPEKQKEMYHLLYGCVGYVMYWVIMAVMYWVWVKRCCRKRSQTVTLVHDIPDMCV

[3] = system: HAS isoforms; settings: cited from earlier work
[4] = target: T1, X1HAS1; experiment: Electrophoretic HA size determination (agarose gel, Stains-all) of in vitro synthesized HA; type: biochemical
Method in brief: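 Hyaluronan made in vitro by X1HAS1 was size-analyzed by combining reactions with SDS-PAGE loading dye and running them on a 1% agarose gel. The gel was equilibrated in 50% ethanol for 1.5 h, stained overnight in the dark with 0.05% Stains-all, then destained in 20% ethanol. Sizes were judged against Streptococcus equi HA standards and HA ladders, with hyaluronidase-digested controls.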

Cc1cc(=O)oc2cc(O)ccc12 [4-methylumbelliferone]
effect on hyaluronic acid synthesis [1]: inhibited

O=C(O)[C@H]1O[C@H](OP(=O)(O)OP(=O)(O)OC[C@H]2O[C@@H](n3ccc(=O)[nH]c3=O)[C@H](O)[C@@H]2O)[C@H](O)[C@@H](O)[C@@H]1O [UDP-GlcA, reference compound]
Km [2]: ~370 µM

CC(=O)N[C@H]1[C@@H](OP(=O)(O)OP(=O)(O)OC[C@H]2O[C@@H](n3ccc(=O)[nH]c3=O)[C@H](O)[C@@H]2O)O[C@H](CO)[C@@H](O)[C@@H]1O [UDP-GlcNAc, reference compound]
Km [2]: ~470 µM

B1: HAS2: human HA synthase isoform 2 (protein, UniProt Q92819 1-552, looked up)
Hyaluronan synthase 2: MHCERFLCILRIIGTTLFGVSLLLGITAAYIVGYQFIQTDNYYFSFGLYGAFLASHLIIQSLFAFLEHRKMKKSLETPIKLNKTVALCIAAYQEDPDYLRKCLQSVKRLTYPGIKVVMVIDGNSEDDLYMMDIFSEVMGRDKSATYIWKNNFHEKGPGETDESHKESSQHVTQLVLSNKSICIMQKWGGKREVMYTAFRALGRSVDYVQVCDSDTMLDPASSVEMVKVLEEDPMVGGVGGDVQILNKYDSWISFLSSVRYWMAFNIERACQSYFGCVQCISGPLGMYRNSLLHEFVEDWYNQEFMGNQCSFGDDRHLTNRVLSLGYATKYTARSKCLTETPIEYLRWLNQQTRWSKSYFREWLYNAMWFHKHHLWMTYEAIITGFFPFFLIATVIQLFYRGKIWNILLFLLTVQLVGLIKSSFASCLRGNIVMVFMSLYSVLYMSSLLPAKMFAIATINKAGWGTSGRKTIVVNFIGLIPVSVWFTILLGGVIFTIYKESKRPFSESKQTVLIVGTLLYACYWVMLLTLYVVLINKCGRRKKGQQYDMVLDV
HA polymer size [3]: several megadaltons

B2: X1HAS1: Xenopus laevis HA synthase isoform 1, wild type (Uniprot P13563, SEQ ID NO: 9) (protein, UniProt P13563 1-588, looked up)
Hyaluronan synthase 1: T1 sequence (P13563 1-588)
activity reduction when manganese is used instead of magnesium as cofactor ([2]; Mn2+ instead of Mg2+): about 30% | overall catalytic rate ([2]; UDP release): approximately 30 substrate turnovers per minute | HA production with Mn2+ ([4]; agarose gel assay, Mn2+ versus Mg2+): reduces HA production slightly | catalytic rate suggested by electrophoretic analysis versus rate by UDP quantification ([4]; based on ~1.6 MDa produced within 90 min): about 2 times | size of HA polymers with sustained high substrate ([4]; both substrates (2.5 mM) supplemented at 2, 4, 6 h, UDP converted to UTP): > 1.6 MDa | size of HA polymers synthesized at completion ([4]; in vitro synthesis, relative to HA marker): > 1.6 MDa | HA product length ([4]; produced within 90 min): ~ 1.6 MDa | change of HA size with one substrate limiting ([4]; substrate replenishing, UDP-GlcNAc at 0.1-1 mM): no increase in HA size | maximum HA extension ([4]; without UDP removal, 2.5 mM of both substrates): ~1.6 MDa

B3: HAS1: human HA synthase isoform 1 (protein, UniProt Q92839 1-578, looked up)
Hyaluronan synthase 1: MRQQDAPKPTPAACRCSGLARRVLTIAFALLILGLMTWAYAAGVPLASDRYGLLAFGLYGAFLSAHLVAQSLFAYLEHRRVAAAARGPLDAATARSVALTISAYQEDPAYLRQCLASARALLYPRARLRVLMVVDGNRAEDLYMVDMFREVFADEDPATYVWDGNYHQPWEPAAAGAVGAGAYREVEAEDPGRLAVEALVRTRRCVCVAQRWGGKREVMYTAFKALGDSVDYVQVCDSDTRLDPMALLELVRVLDEDPRVGAVGGDVRILNPLDSWVSFLSSLRYWVAFNVERACQSYFHCVSCISGPLGLYRNNLLQQFLEAWYNQKFLGTHCTFGDDRHLTNRMLSMGYATKYTSRSRCYSETPSSFLRWLSQQTRWSKSYFREWLYNALWWHRHHAWMTYEAVVSGLFPFFVAATVLRLFYAGRPWALLWVLLCVQGVALAKAAFAAWLRGCLRMVLLSLYAPLYMCGLLPAKFLALVTMNQSGWGTSGRRKLAANYVPLLPLALWALLLLGGLVRSVAHEARADWSGPSRAAEAYHLAAGAGAYVGYWVAMLTLYWVGVRRLCRRRTGGYRVQV
HA polymer size [3]: several megadaltons
